Laboratory results from US20260139048A1 (NANJING LEGEND BIOTECH, published 2026).
Where two headings read alike, the source gives them in different places.

T1: TIGIT on TIGIT-over expressing NFAT-Luc/Jurkat effector cells (GenScript reporter cell line) (UniProt Q495A1 22-244, limits assumed)
T1 sequence (looked up): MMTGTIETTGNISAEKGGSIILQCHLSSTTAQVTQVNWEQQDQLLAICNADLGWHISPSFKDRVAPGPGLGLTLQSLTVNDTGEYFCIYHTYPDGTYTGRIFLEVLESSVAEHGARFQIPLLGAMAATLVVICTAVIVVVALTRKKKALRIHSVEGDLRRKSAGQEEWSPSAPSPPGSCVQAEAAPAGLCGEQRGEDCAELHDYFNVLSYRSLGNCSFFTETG

T2: human TIGIT expressed on CHO-K1 cells (human, UniProt Q495A1 22-244)
T2 construct: whole, on cells; also called human TIGIT-CHO-K1 cells; human TIGIT over-expressing cell line
T2 sequence (looked up): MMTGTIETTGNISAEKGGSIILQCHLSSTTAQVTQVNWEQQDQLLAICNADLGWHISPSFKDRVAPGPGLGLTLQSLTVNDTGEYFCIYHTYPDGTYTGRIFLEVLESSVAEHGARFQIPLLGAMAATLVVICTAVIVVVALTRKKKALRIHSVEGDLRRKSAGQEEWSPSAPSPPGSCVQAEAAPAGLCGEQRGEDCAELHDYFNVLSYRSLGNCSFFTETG

T3: His-tagged human TIGIT (human, UniProt Q495A1 22-141)
T3 construct: SPR analyte; also called human TIGIT protein; not shown: His tag
T3 sequence: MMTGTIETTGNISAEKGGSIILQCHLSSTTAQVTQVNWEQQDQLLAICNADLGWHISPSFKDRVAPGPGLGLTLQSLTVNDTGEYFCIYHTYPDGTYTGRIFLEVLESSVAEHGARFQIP


Columns and labels:
[1] = molecular target: T1, TIGIT on TIGIT-over expressing …; assay: cell-based or functional assay
[2] = molecular target: T2, human TIGIT expressed on CHO-K1 cells; assay: flow cytometry on CHO-K1 cells expressing human TIGIT
His-tagged human TIGIT [3] = molecular target: T3, His-tagged human TIGIT; assay: SPR experiment 4, IgG from HEK293 supernatant captured
[4] = molecular target: T4, cynomolgus TIGIT expressed on CHO-K1 cells (cynomolgus, UniProt A0A7N9I9V4 89-312); assay: flow cytometry on CHO-K1 cells expressing cynomolgus TIGIT
T4 construct: whole, on cells; also called cynomolgus TIGIT over-expressing cell line

His-tagged human TIGIT [5] = molecular target: T3, His-tagged human TIGIT; assay: SPR (Biacore T200), antibody captured, His-tagged TIGIT analyte
[6] = molecular target: T5, His-tagged cynomolgus TIGIT (cynomolgus, UniProt A0A7N9I9V4 89-209); assay: as above
T5 construct: SPR analyte; also called cynomolgus TIGIT protein; not shown: His tag

[7] = molecular target: T2, human TIGIT expressed on CHO-K1 cells; assay: flow cytometry competition: biotinylated CD155-Fc on human TIGIT-CHO-K1 cells
[8] = molecular target: T1, TIGIT on TIGIT-over expressing …; assay: cell-based or functional assay; remark: listed apart in the source
[9] = molecular target: T2, human TIGIT expressed on CHO-K1 cells; assay: flow cytometry on CHO-K1 cells expressing human TIGIT; remark: listed apart in the source
[10] = molecular target: T4, cynomolgus TIGIT expressed on CHO-K1 …; assay: flow cytometry on CHO-K1 cells expressing cynomolgus TIGIT; remark: listed apart in the source
His-tagged human TIGIT [11] = molecular target: T3, His-tagged human TIGIT; assay: SPR (Biacore T200), antibody captured, His-tagged TIGIT analyte; remark: listed apart in the source
[12] = molecular target: T5, His-tagged cynomolgus TIGIT; assay: as above; remark: listed apart in the source
[13] = molecular target: T2, human TIGIT expressed on CHO-K1 cells; assay: flow cytometry competition: biotinylated CD155-Fc on human TIGIT-CHO-K1 cells; remark: listed apart in the source
His-tagged human TIGIT [14] = molecular target: T3, His-tagged human TIGIT; assay: SPR experiment 1, IgG from HEK293 supernatant captured
His-tagged human TIGIT [15] = molecular target: T3, His-tagged human TIGIT; assay: SPR experiment 2, IgG from HEK293 supernatant captured

T5 sequence (A0A7N9I9V4 entry or part of it): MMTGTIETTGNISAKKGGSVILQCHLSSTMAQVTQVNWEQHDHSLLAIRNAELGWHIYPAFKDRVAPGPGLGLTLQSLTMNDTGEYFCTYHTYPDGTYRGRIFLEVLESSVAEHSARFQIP
T4 sequence (A0A7N9I9V4 entry or part of it): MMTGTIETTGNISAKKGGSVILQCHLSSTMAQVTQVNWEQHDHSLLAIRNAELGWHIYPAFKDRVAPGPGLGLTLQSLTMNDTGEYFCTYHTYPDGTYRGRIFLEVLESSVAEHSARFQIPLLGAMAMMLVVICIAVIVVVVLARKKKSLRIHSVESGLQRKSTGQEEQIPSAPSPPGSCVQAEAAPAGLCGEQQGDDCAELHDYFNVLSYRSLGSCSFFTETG

Bottom (RLU) [1]	EC50 [1]	Top (RLU) [1]	EC50 [2]	EC50 [4]	Kd (His-tagged human TIGIT [5])	koff (His-tagged human TIGIT [5])	kon (His-tagged human TIGIT [5])	Kd [6]	koff [6]	kon [6]	IC50 [7]	Bottom (RLU) [8]	EC50 [8]	Top (RLU) [8]	EC50 [9]	EC50 [10]	Kd (His-tagged human TIGIT [11])	koff (His-tagged human TIGIT [11])	kon (His-tagged human TIGIT [11])	Binder	other results
54400 RLU	4.92 nM	152000 RLU	0.511 nM	1.72 nM	0.54 nM	0.00031 s⁻¹	570000 M⁻¹ s⁻¹	18 nM	0.0022 s⁻¹	120000 M⁻¹ s⁻¹	0.502 nM									huTIGIT-3-1 (antibody, human IgG1, kappa, V domains shown, Humanized IgG; also called 3VH3.M4 + 3VL4.M6) VH: EVQLVESGGGLVQPGGSLRLSCAASGFTFSSYGMSWVRQAPGKGLELVATIKSSGGSTNLADSVKGRFTISRDNSKNTLYLQMNSLRAEDTAVYYCVRGYFDYWGQGTTVTVSS VL: DIQMTQSPSSLSASVGDRVTITCRASQDIKTALAWYQQKPGKSPKLLIYWASTRQSGVPSRFSGSGSGTDFTLTISSLQPEDVATYYCQQYYSTPYTFGGGTKVEIKR	Kd (His-tagged human TIGIT [3]): 0.56 nM; koff (His-tagged human TIGIT [3]): 0.00046 s⁻¹; kon (His-tagged human TIGIT [3]): 820000 M⁻¹ s⁻¹
																				reshaped TIGIT-3 antibody 3VH3.M4 + 3VL5.M6 (antibody, V domains shown, Full-length IgG, tested as HEK293 supernatant) VH: EVQLVESGGGLVQPGGSLRLSCAASGFTFSSYGMSWVRQAPGKGLELVATIKSSGGSTNLADSVKGRFTISRDNSKNTLYLQMNSLRAEDTAVYYCVRGYFDYWGQGTTVTVSS VL: DIQMTQSPSSLSASVGDRVTITCRASQDIKTALAWYQQKPGQSPKLLIYWASTRQSGVPSRFSGSGSGTDFTLTISSLQPEDVATYYCQQYYSTPYTFGGGTKVEIK	Kd (His-tagged human TIGIT [3]): 0.5 nM; koff (His-tagged human TIGIT [3]): 0.00043 s⁻¹; kon (His-tagged human TIGIT [3]): 870000 M⁻¹ s⁻¹
55300 RLU	9.69 nM	142000 RLU	1.05 nM	2.35 nM	0.055 nM	3.5e-05 s⁻¹	630000 M⁻¹ s⁻¹	3 nM	0.00083 s⁻¹	270000 M⁻¹ s⁻¹	0.95 nM	12600 RLU	9.28 nM	44200 RLU	0.95 nM	2.77 nM	0.065 nM	4.3e-05 s⁻¹	660000 M⁻¹ s⁻¹	4.1D3 (anti-TIGIT positive control antibody) (antibody, V domains shown) VH: QVQLQQSGPGLVKPSQTLSLTCAISGDSVSSNSAAWNWIRQSPSRGLEWLGKTYYRFKWYSDYAVSVKGRITINPDTSKNQFSLQLNSVTPEDTAVFYCTRESTTYDLLAGPFDYWGQGTLVTVSS VL: not shown	Kd [12]: 5.4 nM; koff [12]: 0.0011 s⁻¹; kon [12]: 200000 M⁻¹ s⁻¹; IC50 [13]: 1.4 nM
51400 RLU	4.9 nM	139000 RLU	0.581 nM	2.31 nM	0.17 nM	9e-05 s⁻¹	520000 M⁻¹ s⁻¹	39 nM	0.0046 s⁻¹	120000 M⁻¹ s⁻¹	0.566 nM	10900 RLU	9.42 nM	49800 RLU	0.42 nM	2.64 nM	0.24 nM	0.00013 s⁻¹	560000 M⁻¹ s⁻¹	TIGIT-6 chimeric antibody (antibody, human IgG1, kappa, V domains shown, also called 6VH + 6VL) VH: QVQLKQSGPELVKPGASVKISCKTSGYTITENTMHWVKQSHGKSLEWIGGINPNNGGTSYNQQFKGKATLTVDKSSSTAYMELRSLTSEDSAVYYCTRSSYYRYDLDYWGQGTTVTVSS VL: DIQMTQSHKFMSTSVGDRVSITCKASQDVKTALAWYQQKPGQSPKLLIYSASYRYTGVPDRFTGSGSGTDFTFTISSVQAEDLAVYYCHQHYTTPWTFGGGTKLEIKR	Kd (His-tagged human TIGIT [14]): 0.094 nM; koff (His-tagged human TIGIT [14]): 5.3e-05 s⁻¹; kon (His-tagged human TIGIT [14]): 560000 M⁻¹ s⁻¹; Kd (His-tagged human TIGIT [15]): 0.29 nM; koff (His-tagged human TIGIT [15]): 0.00012 s⁻¹; kon (His-tagged human TIGIT [15]): 420000 M⁻¹ s⁻¹; Kd [12]: 54 nM; koff [12]: 0.0049 s⁻¹; kon [12]: 90000 M⁻¹ s⁻¹; IC50 [13]: 0.57 nM
												7720 RLU	17.4 nM	51900 RLU	1.03 nM	3.53 nM	0.19 nM	0.00016 s⁻¹	860000 M⁻¹ s⁻¹	TIGIT-15 chimeric antibody (antibody, human IgG1, kappa, V domains shown, Full-length chimeric IgG1 kappa) VH: DVQLVESGGGLVQPGGSLKLSCAASGFTFSSYGMSWVRQTPDRRLELVATINNNGGSTYYPDSVKGRFTISRDNARNTLYLQMSSLKSEDTAMYYCATRTGTEILGFDFWGQGTTLTVSS VL: DIVLTQSHKFMSTSLGDRVSITCKASQDVSTAVAWYQQKPGQSPKLLIYWASSRHTGVPDRFTGSRSGPDYTLTISSVQAEDLALYYCQQQYSTPWTFGGGTKLEIKR	Kd [12]: 1.1 nM; koff [12]: 0.0002 s⁻¹; kon [12]: 180000 M⁻¹ s⁻¹; IC50 [13]: 1.07 nM
